Molecular target: T1, CasEnd-24 (synthetic construct)
T1 chain: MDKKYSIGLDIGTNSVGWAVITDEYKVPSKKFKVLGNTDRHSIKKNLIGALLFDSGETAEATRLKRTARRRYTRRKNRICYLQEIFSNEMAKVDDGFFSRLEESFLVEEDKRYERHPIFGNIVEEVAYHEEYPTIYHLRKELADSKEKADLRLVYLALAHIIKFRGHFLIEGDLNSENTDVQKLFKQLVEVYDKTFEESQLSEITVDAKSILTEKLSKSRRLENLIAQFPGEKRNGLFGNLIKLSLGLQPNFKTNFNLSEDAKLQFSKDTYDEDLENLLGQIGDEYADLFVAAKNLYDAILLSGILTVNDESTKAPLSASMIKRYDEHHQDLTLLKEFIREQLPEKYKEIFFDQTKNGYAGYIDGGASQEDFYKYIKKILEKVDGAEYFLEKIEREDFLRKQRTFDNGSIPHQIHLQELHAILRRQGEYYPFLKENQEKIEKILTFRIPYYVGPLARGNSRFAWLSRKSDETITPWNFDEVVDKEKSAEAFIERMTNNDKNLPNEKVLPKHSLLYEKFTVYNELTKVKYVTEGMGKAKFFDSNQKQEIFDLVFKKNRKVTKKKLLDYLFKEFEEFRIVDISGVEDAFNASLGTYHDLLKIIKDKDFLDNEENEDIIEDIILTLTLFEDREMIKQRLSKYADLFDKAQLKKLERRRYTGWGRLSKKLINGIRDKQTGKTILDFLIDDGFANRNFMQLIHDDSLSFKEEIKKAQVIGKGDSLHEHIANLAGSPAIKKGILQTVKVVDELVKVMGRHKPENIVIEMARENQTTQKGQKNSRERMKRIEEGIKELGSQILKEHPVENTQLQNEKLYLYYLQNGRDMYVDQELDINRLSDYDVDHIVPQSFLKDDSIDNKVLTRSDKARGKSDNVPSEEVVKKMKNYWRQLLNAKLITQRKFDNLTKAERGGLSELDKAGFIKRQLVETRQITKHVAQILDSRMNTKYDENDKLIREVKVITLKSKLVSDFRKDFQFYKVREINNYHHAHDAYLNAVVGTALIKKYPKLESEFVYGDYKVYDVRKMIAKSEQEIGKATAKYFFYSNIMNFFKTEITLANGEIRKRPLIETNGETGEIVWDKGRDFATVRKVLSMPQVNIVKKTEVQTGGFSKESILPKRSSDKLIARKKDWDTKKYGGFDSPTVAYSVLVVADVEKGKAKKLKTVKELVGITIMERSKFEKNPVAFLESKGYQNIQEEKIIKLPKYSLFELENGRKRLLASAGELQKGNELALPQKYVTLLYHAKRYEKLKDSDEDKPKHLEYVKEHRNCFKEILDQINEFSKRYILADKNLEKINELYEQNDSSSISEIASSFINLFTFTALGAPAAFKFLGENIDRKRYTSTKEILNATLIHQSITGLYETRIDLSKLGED
Experiment: cell_activity; +++; HEK293T; PAM not stated
In short: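 Editing activity was scored as the fraction of GFP+ cells on day 4 by flow cytometry. BFP-expressing HEK293T cells (250,000) received by nucleofection 200 ng plasmid for the RT-Cas fusion protein and 200 ng template RNA plasmid designed to convert BFP to GFP.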

B1: BFP-to-GFP template RNA ; BFP reporter protospacer (ssRNA ; dsDNA)
RNA: GCCGAAGCACUGCACGCCGUGUUUUAGAGCUAGAAAUAGCAAGUUAAAAUAAGGCUAGUCCGUUAUCAACUUGAAAAAGUGGCACCGAGUCGGUGCACCCUGACGUACGGCGUGCAGUGCUU
DNA 1: GCCGAAGCACTGCACGCCGT
DNA 2: ACGGCGTGCAGTGCTTCGGC
  activity: ≥ 100 % of reference
